In patent US10562947B2, “Compositions and methods for preventing or treating diseases, conditions or processes characterized by aberrant fibroblast proliferation and extracellular matrix deposition” (MOERAE MATRIX, INC., priority 2011, dated 2020):
Where a SMILES comes first, the peptide text is derived from it.

Assays:
MK2 phosphorylation = MK2 phosphorylation in intact airway smooth muscle, immunoblot; set-up: species or system human; conditions: 200 μM pre-treatment for 30 min
Description: (§1) (A) Representative tracings of force generation. Cumulative contractile responses to CCH (B) and % relaxation to ISO doses (C). n=4; p<0.05. Inset is an immunoblot showing MK2 phosphorylation level. HASM was hung in the muscle bath and frozen. MK2 phosphorylation was determined by SDS PAGE and immunoblotting.

[1] = tested on: human fetal lung fibroblasts (IMR-90); assay: TGF-β-mediated fibronectin expression in IMR-90 cells; format: cell-based; conditions: 1 h pre-treatment, TGF-β1 2 ng/ml 72 h
Description: Fibronection was measured as secreted fragments in the conditioned media. Equal amounts (14 μg) of total proteins from the conditioned media were loaded in each lane.

[2] = tested on: human airway smooth muscle (HASM); assay: ISO-induced relaxation of intact airway tissues in muscle bath; conditions: 200 μM pre-treatment for 30 min; n=4
Description: as §1

TNF-α = assay: Circulating inflammatory cytokines, bleomycin treatment model; format: in vivo, mouse; conditions: intraperitoneal or nebulized; 24 hours after final administration
α-SMA = α-SMA immunostaining of lung sections, bleomycin treatment model; format: in vivo, mouse; conditions: 50 μg/kg/day IP or NEB, day 14 to 28; vs untreated bleomycin-injured lungs
Excerpt: C57-BL/6 mice were subjected to bleomycin injury at day 0. […] Formalin-fixed lung tissue sections were immunostained against α-SMA. Control staining was with biotinylated secondary IgG antibody. Streptavidin-conjugated horseradish peroxidase was used with 3,3′-diaminobenzidene as substrate and nuclei was counterstained with hematoxylin. Original magnifications: 20×

IL-6 = assay: Circulating inflammatory cytokines, bleomycin treatment model; format: in vivo, mouse; conditions: intraperitoneal or nebulized; 24 hours after final administration
[3] = tested on: Porcine airway smooth muscle (PASM); assay: ISO-induced relaxation of airway smooth muscle rings in muscle bath; conditions: 100 μM for 1 hr; CCh-contracted rings; n=3
Excerpt: Porcine airway smooth muscle (PASM) rings were isolated from second generation bronchi, cartilage was peeled off and then hung in a muscle bath and equilibrated in Kreb's buffer for 3 hrs. […] ISO is a β-adrenergic agonist that relaxes almost all varieties of […] when the tone is high, but its action is most pronounced on bronchial and gastrointestinal smooth muscle. It prevents or relieves bronchoconstrution. Its effect in asthma maybe due in part to an additional action to inhibit antigen-induced release of histamine and other mediators of inflammation; this action is shared by β2-receptor-selective stimulants. Goodman & Gilman's The Pharmacological Basis of Therapeutics, Joel G. Hardman and Lee E. Limberd, Eds., 10th Ed. […] Force was normalized to the weight and length of the tissue and converted to stress and relaxation induced was calculated.

HIPK3(h) = biological target: T1, HIPK3(h) (Homo sapiens, UniProt Q9H422); assay: Kinase Profiling Assay; format: biochemical; conditions: 100 μM peptide
T1 construct: purchased Millipore
T1 sequence (Q9H422 whole entry): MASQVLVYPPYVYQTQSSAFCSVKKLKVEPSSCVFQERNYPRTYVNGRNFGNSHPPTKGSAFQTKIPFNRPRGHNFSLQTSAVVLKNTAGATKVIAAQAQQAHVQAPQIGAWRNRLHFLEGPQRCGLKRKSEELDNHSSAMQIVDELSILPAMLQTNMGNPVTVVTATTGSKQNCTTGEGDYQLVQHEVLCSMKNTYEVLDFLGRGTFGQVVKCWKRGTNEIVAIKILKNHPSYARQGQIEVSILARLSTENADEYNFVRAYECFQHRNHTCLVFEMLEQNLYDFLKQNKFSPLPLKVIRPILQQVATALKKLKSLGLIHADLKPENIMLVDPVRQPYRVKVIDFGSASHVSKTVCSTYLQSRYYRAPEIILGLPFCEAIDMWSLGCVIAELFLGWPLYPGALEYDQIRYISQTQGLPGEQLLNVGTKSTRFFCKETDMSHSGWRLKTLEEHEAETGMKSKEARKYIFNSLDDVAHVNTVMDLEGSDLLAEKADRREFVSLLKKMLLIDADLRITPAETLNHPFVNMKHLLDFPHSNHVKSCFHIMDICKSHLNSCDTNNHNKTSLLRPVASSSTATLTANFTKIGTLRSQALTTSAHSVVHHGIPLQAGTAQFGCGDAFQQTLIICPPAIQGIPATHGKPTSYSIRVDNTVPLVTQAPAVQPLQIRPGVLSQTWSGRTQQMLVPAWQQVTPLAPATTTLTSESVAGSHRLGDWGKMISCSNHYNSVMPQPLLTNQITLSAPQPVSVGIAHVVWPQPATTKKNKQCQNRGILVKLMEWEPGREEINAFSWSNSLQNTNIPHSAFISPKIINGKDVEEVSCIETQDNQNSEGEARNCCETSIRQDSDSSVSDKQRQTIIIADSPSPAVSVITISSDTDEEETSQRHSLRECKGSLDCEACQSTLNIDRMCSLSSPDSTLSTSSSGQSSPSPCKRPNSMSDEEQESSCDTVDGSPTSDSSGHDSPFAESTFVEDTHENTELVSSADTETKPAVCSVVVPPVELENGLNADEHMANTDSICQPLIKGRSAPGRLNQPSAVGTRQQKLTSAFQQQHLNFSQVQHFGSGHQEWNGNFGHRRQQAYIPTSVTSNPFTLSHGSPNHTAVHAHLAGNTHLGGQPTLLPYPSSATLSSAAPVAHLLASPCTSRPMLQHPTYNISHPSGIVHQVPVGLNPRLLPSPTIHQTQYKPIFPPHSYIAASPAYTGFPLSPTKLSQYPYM
Summary of the method: (§2)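 First, MK2 inhibitor peptides were applied to a panel of 266 human kinases; then each kinase's activity was measured in duplicate to assess off-target inhibition.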

EGFR(T790M)(h) = EGFR(T790M)(h) (Homo sapiens, UniProt P00533, T790M); assay: Kinase Profiling Assay; format: biochemical; conditions: 100 μM peptide
Summary of the method: as §2

Abl(H396P)(h) = Abl(H396P)(h) (Homo sapiens, UniProt P00519, H396P); assay: Kinase Profiling Assay; format: biochemical; conditions: 100 μM peptide
Summary of the method: as §2

MKK7β(h) = biological target: T2, MKK7β(h) (Homo sapiens, UniProt O14733); assay: Kinase Profiling Assay; format: biochemical; conditions: 100 μM peptide
T2 sequence (O14733 1-419): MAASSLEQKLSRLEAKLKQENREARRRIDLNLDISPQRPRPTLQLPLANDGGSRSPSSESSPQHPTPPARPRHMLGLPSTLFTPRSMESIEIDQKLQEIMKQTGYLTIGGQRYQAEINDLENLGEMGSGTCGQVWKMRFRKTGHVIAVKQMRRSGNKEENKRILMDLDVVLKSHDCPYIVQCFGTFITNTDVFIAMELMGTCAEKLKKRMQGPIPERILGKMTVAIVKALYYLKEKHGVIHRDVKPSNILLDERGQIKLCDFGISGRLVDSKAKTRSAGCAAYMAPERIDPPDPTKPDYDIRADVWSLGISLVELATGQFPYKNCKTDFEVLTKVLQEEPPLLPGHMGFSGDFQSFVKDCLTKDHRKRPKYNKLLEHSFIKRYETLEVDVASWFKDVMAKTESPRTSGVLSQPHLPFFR
Summary of the method: as §2

Aurora-A(h) = biological target: T3, Aurora-A(h) (Homo sapiens, UniProt O14965); assay: Kinase Profiling Assay; format: biochemical; conditions: 100 μM peptide
T3 sequence (O14965 1-403): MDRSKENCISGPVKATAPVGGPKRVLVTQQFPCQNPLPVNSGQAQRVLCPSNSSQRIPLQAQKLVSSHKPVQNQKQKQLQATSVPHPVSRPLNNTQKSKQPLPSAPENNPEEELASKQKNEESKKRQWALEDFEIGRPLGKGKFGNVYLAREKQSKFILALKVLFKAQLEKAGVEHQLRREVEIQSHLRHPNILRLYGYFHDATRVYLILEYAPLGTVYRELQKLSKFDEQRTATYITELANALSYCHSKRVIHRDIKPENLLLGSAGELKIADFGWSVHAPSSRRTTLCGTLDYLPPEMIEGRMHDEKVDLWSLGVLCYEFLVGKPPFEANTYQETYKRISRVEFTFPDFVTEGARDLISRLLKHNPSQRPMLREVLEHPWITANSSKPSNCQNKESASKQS
Summary of the method: as §2

CK1γ3(h) = CK1γ3(h) (Homo sapiens, UniProt Q9Y6M4); assay: Kinase Profiling Assay; format: biochemical; conditions: 100 μM peptide
Sequence of CK1γ3(h) (Q9Y6M4 whole entry): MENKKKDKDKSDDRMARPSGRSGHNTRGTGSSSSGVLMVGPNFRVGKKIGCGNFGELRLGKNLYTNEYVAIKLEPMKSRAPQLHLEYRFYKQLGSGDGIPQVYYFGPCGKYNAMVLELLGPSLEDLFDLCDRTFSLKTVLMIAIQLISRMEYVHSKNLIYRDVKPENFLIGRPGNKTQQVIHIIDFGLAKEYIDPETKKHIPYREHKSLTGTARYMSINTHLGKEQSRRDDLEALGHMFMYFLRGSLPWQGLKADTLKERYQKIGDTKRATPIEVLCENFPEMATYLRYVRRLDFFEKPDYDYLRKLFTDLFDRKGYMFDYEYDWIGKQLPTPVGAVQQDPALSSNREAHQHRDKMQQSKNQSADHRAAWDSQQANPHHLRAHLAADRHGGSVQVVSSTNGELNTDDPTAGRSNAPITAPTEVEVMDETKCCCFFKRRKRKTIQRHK
Summary of the method: as §2

Tie2(R849W)(h) = Tie2(R849W)(h) (Homo sapiens, UniProt Q02763, R849W); assay: Kinase Profiling Assay; format: biochemical; conditions: 100 μM peptide
Sequence of Tie2(R849W)(h) (Q02763 23-1124 R849W): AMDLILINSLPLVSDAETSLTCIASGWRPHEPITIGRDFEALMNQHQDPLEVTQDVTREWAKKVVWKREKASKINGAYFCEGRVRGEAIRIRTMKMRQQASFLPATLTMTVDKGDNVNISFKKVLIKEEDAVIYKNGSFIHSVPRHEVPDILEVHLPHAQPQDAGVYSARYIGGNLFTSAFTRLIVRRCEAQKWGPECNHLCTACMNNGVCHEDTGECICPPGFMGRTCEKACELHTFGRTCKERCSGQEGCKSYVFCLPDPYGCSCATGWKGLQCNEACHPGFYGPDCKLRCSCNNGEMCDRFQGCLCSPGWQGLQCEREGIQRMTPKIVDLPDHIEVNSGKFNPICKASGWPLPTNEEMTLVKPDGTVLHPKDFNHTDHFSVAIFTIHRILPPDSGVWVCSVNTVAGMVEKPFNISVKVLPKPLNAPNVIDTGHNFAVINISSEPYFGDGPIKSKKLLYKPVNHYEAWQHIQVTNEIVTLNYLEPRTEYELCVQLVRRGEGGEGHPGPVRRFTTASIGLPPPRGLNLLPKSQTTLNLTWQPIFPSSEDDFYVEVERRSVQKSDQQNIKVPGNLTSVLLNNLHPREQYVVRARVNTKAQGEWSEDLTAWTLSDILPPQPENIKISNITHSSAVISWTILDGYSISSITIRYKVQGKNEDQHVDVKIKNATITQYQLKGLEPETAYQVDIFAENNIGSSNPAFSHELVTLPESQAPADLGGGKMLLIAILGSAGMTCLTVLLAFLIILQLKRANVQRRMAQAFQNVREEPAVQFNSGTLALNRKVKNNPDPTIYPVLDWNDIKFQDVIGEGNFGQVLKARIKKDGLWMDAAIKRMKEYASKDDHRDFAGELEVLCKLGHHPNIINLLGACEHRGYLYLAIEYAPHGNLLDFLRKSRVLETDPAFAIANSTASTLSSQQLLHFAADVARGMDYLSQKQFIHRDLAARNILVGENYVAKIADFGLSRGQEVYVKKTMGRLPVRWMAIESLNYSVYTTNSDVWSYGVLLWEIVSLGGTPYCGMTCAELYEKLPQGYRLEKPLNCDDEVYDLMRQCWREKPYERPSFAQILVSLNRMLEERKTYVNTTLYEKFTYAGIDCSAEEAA
Summary of the method: as §2

MRCKα(h) = MRCKα(h) (Homo sapiens, UniProt Q5VT25); assay: Kinase Profiling Assay; format: biochemical; conditions: 100 μM peptide
Sequence of MRCKα(h) (Q5VT25 whole entry): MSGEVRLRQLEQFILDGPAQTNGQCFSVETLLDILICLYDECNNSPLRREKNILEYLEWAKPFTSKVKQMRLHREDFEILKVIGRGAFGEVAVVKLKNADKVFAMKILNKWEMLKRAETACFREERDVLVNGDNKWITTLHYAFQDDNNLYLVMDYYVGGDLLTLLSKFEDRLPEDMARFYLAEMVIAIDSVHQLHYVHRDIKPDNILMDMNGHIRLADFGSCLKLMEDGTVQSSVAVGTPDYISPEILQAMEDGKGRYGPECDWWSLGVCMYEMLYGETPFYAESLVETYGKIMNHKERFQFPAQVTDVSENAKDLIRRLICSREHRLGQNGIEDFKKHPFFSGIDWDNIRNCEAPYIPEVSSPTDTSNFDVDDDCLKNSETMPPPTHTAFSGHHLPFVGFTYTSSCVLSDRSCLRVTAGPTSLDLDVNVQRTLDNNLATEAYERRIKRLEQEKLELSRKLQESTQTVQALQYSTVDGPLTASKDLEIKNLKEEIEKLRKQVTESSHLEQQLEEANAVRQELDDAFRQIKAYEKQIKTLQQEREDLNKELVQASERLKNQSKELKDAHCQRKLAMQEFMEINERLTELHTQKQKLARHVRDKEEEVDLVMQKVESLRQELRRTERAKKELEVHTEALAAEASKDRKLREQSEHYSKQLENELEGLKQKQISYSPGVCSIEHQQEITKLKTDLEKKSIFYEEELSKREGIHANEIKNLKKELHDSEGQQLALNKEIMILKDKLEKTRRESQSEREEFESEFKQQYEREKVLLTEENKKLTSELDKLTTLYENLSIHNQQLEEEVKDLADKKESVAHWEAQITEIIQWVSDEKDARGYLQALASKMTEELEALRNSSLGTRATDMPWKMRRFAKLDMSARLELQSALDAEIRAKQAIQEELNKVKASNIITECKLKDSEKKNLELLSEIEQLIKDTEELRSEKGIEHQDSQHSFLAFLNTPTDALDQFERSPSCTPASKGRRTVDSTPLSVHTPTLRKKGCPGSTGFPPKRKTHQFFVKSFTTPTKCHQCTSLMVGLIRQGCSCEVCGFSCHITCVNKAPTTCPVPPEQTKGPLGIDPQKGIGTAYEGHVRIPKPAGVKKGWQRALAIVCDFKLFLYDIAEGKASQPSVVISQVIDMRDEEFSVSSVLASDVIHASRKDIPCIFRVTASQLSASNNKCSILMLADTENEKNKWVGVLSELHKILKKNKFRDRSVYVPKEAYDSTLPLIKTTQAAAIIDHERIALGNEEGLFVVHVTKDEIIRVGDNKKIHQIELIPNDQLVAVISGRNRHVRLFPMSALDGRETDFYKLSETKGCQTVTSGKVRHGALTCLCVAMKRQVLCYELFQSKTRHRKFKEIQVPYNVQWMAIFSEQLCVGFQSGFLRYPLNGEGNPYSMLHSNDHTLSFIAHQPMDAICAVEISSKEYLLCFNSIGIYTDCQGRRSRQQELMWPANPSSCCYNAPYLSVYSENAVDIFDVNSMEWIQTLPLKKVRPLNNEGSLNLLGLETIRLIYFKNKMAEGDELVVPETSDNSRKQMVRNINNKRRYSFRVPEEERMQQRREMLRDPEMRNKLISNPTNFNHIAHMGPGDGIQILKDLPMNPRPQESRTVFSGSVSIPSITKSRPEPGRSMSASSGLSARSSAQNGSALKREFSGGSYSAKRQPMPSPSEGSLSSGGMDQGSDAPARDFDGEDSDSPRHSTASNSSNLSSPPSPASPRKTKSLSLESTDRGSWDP
Summary of the method: as §2

Snk(h) = Snk(h) (Homo sapiens, UniProt Q9NYY3); assay: Kinase Profiling Assay; format: biochemical; conditions: 100 μM peptide
Summary of the method: as §2

PKA(h) = PKA(h) (Homo sapiens, UniProt P17612); assay: Kinase Profiling Assay; format: biochemical; conditions: 100 μM peptide
Summary of the method: as §2

PAR-1Bα(h) = PAR-1Bα(h) (Homo sapiens, UniProt Q7KZI7); assay: Kinase Profiling Assay; format: biochemical; conditions: 100 μM peptide
Summary of the method: as §2

| Compound | protein level of fibronectin (conditioned media) [1] | HIPK3(h) % activity (HIPK3(h)) [%] | EGFR(T790M)(h) % activity (EGFR(T790M)(h)) [%] | Abl(H396P)(h) % activity (Abl(H396P)(h)) [%] | MKK7β(h) % activity (MKK7β(h)) [%] | Aurora-A(h) % activity (Aurora-A(h)) [%] | CK1γ3(h) % activity (CK1γ3(h)) [%] | Tie2(R849W)(h) % activity (Tie2(R849W)(h)) [%] | MRCKα(h) % activity (MRCKα(h)) [%] | Snk(h) % activity (Snk(h)) [%] | PKA(h) % activity (PKA(h)) [%] | PAR-1Bα(h) % activity (PAR-1Bα(h)) [%] | other results |
| --- | --- | --- | --- | --- | --- | --- | --- | --- | --- | --- | --- | --- | --- |
| CC(C)C[C@H](NC(=O)[C@H](C)NC(=O)[C@H](CCCCN)NC(=O)[C@H](C)NC(=O)[C@H](CCCNC(=N)N)NC(=O)[C@H](C)NC(=O)[C@H](CCC(N)=O)NC(=O)[C@H](CCCNC(=N)N)NC(=O)[C@H](C)NC(=O)[C@H](C)NC(=O)[C@H](C)NC(=O)[C@H](CCCNC(=N)N)NC(=O)[C@H](C)NC(=O)[C@@H](N)Cc1ccc(O)cc1)C(=O)N[C@@H](C)C(=O)N[C@@H](CCCNC(=N)N)C(=O)N[C@@H](CCC(N)=O)C(=O)N[C@@H](CC(C)C)C(=O)NCC(=O)N[C@H](C(=O)N[C@@H](C)C(=O)N[C@@H](C)C(=O)O)C(C)C [MMI-0100] (H-YARAAARQARAKALARQLGVAA-OH; N-terminus and C-terminus assumed) | decreases in the levels |  |  |  |  |  |  |  |  |  |  |  | MK2 phosphorylation level (MK2 phosphorylation): reduced MK2 phosphorylation; ISO-induced relaxation [2]: enhances ISO-induced relaxation; plasma level of TNF-α (TNF-α): significantly reduced; level of α-SMA in lungs (α-SMA): significantly attenuated; plasma level of IL-6 (IL-6): significantly reduced; enhancement of ISO induced relaxation [3]: 13% |
| FAKLAARLYRKALARQLGVAA [MMI-0300] |  | 93 | 100 | 101 | 100 | 92 | 125 |  |  |  |  |  |  |
| KAFAKLAARLYRKALARQLGVAA [MMI-0400] |  |  |  |  | 94 |  |  | 108 | 97 | 131 |  |  |  |
| HRRIKAWLKKIKALARQLGVAA (Mammalian) [MMI-0500] |  | 85 | 70 | 51 |  | 110 |  |  | 5 | 122 | 118 | 97 |  |
| YARAAARQARAKALNRQLGVA (Mammalian) [MMI-0200] | no changes in the protein level |  |  |  |  |  | 96 | 89 |  |  | 110 | 110 |  |
